Drawing on the supplement of paper PMC10567573, this text covers protein stability index for 94 variants.

First the molecules themselves.
B1: SNX8 (parent)
chain: VVLKLFLSFSGSDVQNKLKESAQC
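Further: lentivirally expressed fusions sorted by FACS into six bins by GFP to DsRed ratio, PSI derived from sequencing read proportions per bin multiplied by bin number.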

The variants in this data set derive from B1. Put plainly: protein stability index of a GFP-peptide fusion (GPS, HEK-293T) (PSI 1-6); higher = more stable. The settings on record: c terminus: a fixed tail appended.
With VVLKLFLSFSGDDVQNKLKESAQC [S12D], the protein stability index is 3.29.

As for VVLKLFLSFSGNDVQNKLKESAQC [S12N], the protein stability index was determined as 2.13.

Regarding VVLKLFLSFSGMDVQNKLKESAQC [S12M], the protein stability index is 1.72.

For the variant VVLKLFLSFSGADVQNKLKESAQC [S12A], the protein stability index is 2.2.

VVLKLFLLFSGSDVQNKLKESAQC [S8L]: the protein stability index is 2.45.

As to VVLKLFLMFSGSDVQNKLKESAQC [S8M], the protein stability index turned out to be 4.24.

As to VVLKLFLWFSGSDVQNKLKESAQC [S8W], the protein stability index is 2.64.

As to VVLKLFLPFSGSDVQNKLKESAQC [S8P], the protein stability index is 5.05.

Turning to VVLKLMLSFSGSDVQNKLKESAQC [F6M], the protein stability index was 2.48.

Consider VVLKLKLSFSGSDVQNKLKESAQC [F6K], for which the protein stability index turned out to be 3.48.

As for VVLKLFLSFSESDVQNKLKESAQC [G11E], the protein stability index was 3.17.

On to VVLKLFLSFSISDVQNKLKESAQC [G11I], for which the protein stability index was determined as 2.14.

For the variant VVLKLFLSFSHSDVQNKLKESAQC [G11H], the protein stability index is 2.62.

With VVLKLFLSFSYSDVQNKLKESAQC [G11Y], the protein stability index is 2.42.

Consider VVLKLFLSFSQSDVQNKLKESAQC [G11Q], for which the protein stability index came to 1.77.

For VVLKLFLSFSFSDVQNKLKESAQC [G11F], the protein stability index came to 3.55.

For the variant VVLKLFLSFSDSDVQNKLKESAQC [G11D], the protein stability index worked out at 2.11.

Regarding VVLKLFLSFSASDVQNKLKESAQC [G11A], the protein stability index was 2.33.

Consider VVLKLFLSFSSSDVQNKLKESAQC [G11S], for which the protein stability index was determined as 2.41.

As to VVLKLFGSFSGSDVQNKLKESAQC [L7G], the protein stability index was 1.43.

VVLKLFPSFSGSDVQNKLKESAQC [L7P]: the protein stability index came to 2.34.

In the case of VVLKLFFSFSGSDVQNKLKESAQC [L7F], the protein stability index was found to be 2.35.

As to VVLKLFDSFSGSDVQNKLKESAQC [L7D], the protein stability index came to 1.73.

On to VVLKLFLSFSGSDVQNKLKESAQY [C24Y], for which the protein stability index was determined as 3.1.

VVLKLFLSFSGSDVQNKLKESAQD [C24D]: the protein stability index was 1.9.

Take VVLKLFLSFSGSDVQNKLKESAQW [C24W]: the protein stability index was 1.84.

Turning to VVLKLFLSFSGSDVQNKLKESAQN [C24N], the protein stability index was 2.99.

For the variant VVLKLFLSFSGSDVQNKLKESAQL [C24L], the protein stability index was 5.49.

Consider VYLKLFLSFSGSDVQNKLKESAQC [V2Y], for which the protein stability index worked out at 2.24.

On to VDLKLFLSFSGSDVQNKLKESAQC [V2D], for which the protein stability index was found to be 1.4.

For the variant VELKLFLSFSGSDVQNKLKESAQC [V2E], the protein stability index was 1.39.

For VCLKLFLSFSGSDVQNKLKESAQC [V2C], the protein stability index was found to be 3.14.

Regarding VVLKLFLSFSGSDVCNKLKESAQC [Q15C], the protein stability index was determined as 4.88.

Turning to VVLKLFLSFSGSDVNNKLKESAQC [Q15N], the protein stability index was 2.9.

Take VVLKLFLSFSGSDVQNKTKESAQC [L18T]: the protein stability index was 2.13.

Regarding VVLKLFLSFSGSDVQNKAKESAQC [L18A], the protein stability index amounted to 2.7.

In the case of VVLKLFLSFSGSDVQNKCKESAQC [L18C], the protein stability index was determined as 3.48.

With VVLKLFLSFSGSDVQNKIKESAQC [L18I], the protein stability index is 2.58.

Take VVLKLFLSFSGSDVQNKEKESAQC [L18E]: the protein stability index turned out to be 2.26.

For VVLKLFLSFSGSDVQNKRKESAQC [L18R], the protein stability index is 1.5.

For VVQKLFLSFSGSDVQNKLKESAQC [L3Q], the protein stability index was 2.61.

As to VVAKLFLSFSGSDVQNKLKESAQC [L3A], the protein stability index was determined as 2.34.

Regarding VVDKLFLSFSGSDVQNKLKESAQC [L3D], the protein stability index stood at 2.44.

Take VVYKLFLSFSGSDVQNKLKESAQC [L3Y]: the protein stability index was 1.94.

With VVSKLFLSFSGSDVQNKLKESAQC [L3S], the protein stability index came out at 1.66.

Take VVHKLFLSFSGSDVQNKLKESAQC [L3H]: the protein stability index was found to be 3.17.

Take VVCKLFLSFSGSDVQNKLKESAQC [L3C]: the protein stability index is 2.4.

For the variant VVGKLFLSFSGSDVQNKLKESAQC [L3G], the protein stability index is 1.78.

For VVPKLFLSFSGSDVQNKLKESAQC [L3P], the protein stability index is 2.87.

Take VVNKLFLSFSGSDVQNKLKESAQC [L3N]: the protein stability index amounted to 2.21.

Regarding VVVKLFLSFSGSDVQNKLKESAQC [L3V], the protein stability index came out at 3.77.

Regarding VVLKLFLSYSGSDVQNKLKESAQC [F9Y], the protein stability index is 3.17.

With VVLKLFLSRSGSDVQNKLKESAQC [F9R], the protein stability index stood at 2.42.

As to VVLKLFLSKSGSDVQNKLKESAQC [F9K], the protein stability index came to 1.72.

On to VVLKLFLSHSGSDVQNKLKESAQC [F9H], for which the protein stability index stood at 3.85.

VVLKLFLSASGSDVQNKLKESAQC [F9A]: the protein stability index was 3.

As for VVLKLFLSTSGSDVQNKLKESAQC [F9T], the protein stability index turned out to be 2.41.

For the variant VVLKLFLSNSGSDVQNKLKESAQC [F9N], the protein stability index was found to be 1.66.

Regarding AVLKLFLSFSGSDVQNKLKESAQC [V1A], the protein stability index was 1.96.

Consider YVLKLFLSFSGSDVQNKLKESAQC [V1Y], for which the protein stability index was 2.69.

As for TVLKLFLSFSGSDVQNKLKESAQC [V1T], the protein stability index came to 2.48.

On to HVLKLFLSFSGSDVQNKLKESAQC [V1H], for which the protein stability index is 1.6.

On to WVLKLFLSFSGSDVQNKLKESAQC [V1W], for which the protein stability index was found to be 1.04.

Regarding EVLKLFLSFSGSDVQNKLKESAQC [V1E], the protein stability index turned out to be 2.47.

With VVLHLFLSFSGSDVQNKLKESAQC [K4H], the protein stability index came out at 2.6.

Take VVLNLFLSFSGSDVQNKLKESAQC [K4N]: the protein stability index turned out to be 2.76.

On to VVLSLFLSFSGSDVQNKLKESAQC [K4S], for which the protein stability index came to 2.38.

In the case of VVLFLFLSFSGSDVQNKLKESAQC [K4F], the protein stability index amounted to 2.27.

On to VVLELFLSFSGSDVQNKLKESAQC [K4E], for which the protein stability index turned out to be 4.58.

For the variant VVLQLFLSFSGSDVQNKLKESAQC [K4Q], the protein stability index stood at 2.43.

Consider VVLKLFLSFSGSDVQNKLKSSAQC [E20S], for which the protein stability index was found to be 3.97.

Consider VVLKLFLSFSGSDVQNKLKLSAQC [E20L], for which the protein stability index amounted to 1.89.

Consider VVLKLFLSFSGSDVQNKLKMSAQC [E20M], for which the protein stability index came out at 2.13.

Turning to VVLKLFLSFSGSDVQNKLKYSAQC [E20Y], the protein stability index amounted to 3.73.

In the case of VVLKLFLSFSGSDVQNKLKQSAQC [E20Q], the protein stability index came out at 2.37.

For the variant VVLKLFLSFSGSDVQNKLKNSAQC [E20N], the protein stability index is 3.6.

For VVLKLFLSFSGSDVQNKLKASAQC [E20A], the protein stability index turned out to be 2.89.

Consider VVLKLFLSFSGSDVQNKLKCSAQC [E20C], for which the protein stability index was 3.61.

As for VVLKLFLSFSGSDVQNKLKESFQC [A22F], the protein stability index was found to be 3.23.

In the case of VVLKLFLSFSGSDVQNKLKESCQC [A22C], the protein stability index worked out at 2.05.

For VVLKLFLSFSGSDVQNKLKESTQC [A22T], the protein stability index stood at 1.76.

Take VVLKLFLSFSGSDVQNKLKESDQC [A22D]: the protein stability index is 4.82.

As for VVLKLFLSFSGSDVQNKLKESMQC [A22M], the protein stability index was 3.48.

Take VVLKLFLSFSGSDVQNKLKESGQC [A22G]: the protein stability index was found to be 3.13.

As for VVLKLFLSFSGSDVQNKLKESEQC [A22E], the protein stability index was 3.99.

Take VVLKLFLSFSGSDVQNKLKESWQC [A22W]: the protein stability index amounted to 3.87.

In the case of VVLKLFLSFSGSDVQNKLKEVAQC [S21V], the protein stability index is 2.46.

In the case of VVLKLFLSFSGSDVQNKLKEYAQC [S21Y], the protein stability index was found to be 2.66.

VVLKLFLSFSGSDVQNKLKEKAQC [S21K]: the protein stability index is 2.25.

As for VVLKLFLSFSGSDVQNKLKEWAQC [S21W], the protein stability index came out at 2.66.

As to VVLKHFLSFSGSDVQNKLKESAQC [L5H], the protein stability index is 2.57.

As to VVLKRFLSFSGSDVQNKLKESAQC [L5R], the protein stability index was determined as 1.92.

For the variant VVLKAFLSFSGSDVQNKLKESAQC [L5A], the protein stability index is 2.93.

Take VVLKCFLSFSGSDVQNKLKESAQC [L5C]: the protein stability index stood at 2.91.
